Selectivity ratio CTLA4/CD28 and selectivity ratio CTLA4/B7.2 data for one molecule are collected here from patent publication US20050287136A1.

For assay [1], the target named is CTLA-4-Ig(G1) (Repligen, Inc.) (UniProt P16410). In words: IGEN ECL bead assay, CTLA-4-Ig(G1) against CD28-Ig(G1), antibody 1 ug/ml.
For assay [2] the target is unchanged. Kind of assay: IGEN ECL bead assay, CTLA-4-Ig(G1) against B7.2-Ig(G1), antibody 1 ug/ml.

A value given as a limit tells only on which side of the number the result lay.

B1: 4.10.2 (antibody, human IgG2, V domains shown)
VH: QVQLVESGGGVVQPGRSLRLSCVASGFIFSSHGIHWVRQAPGKGLEWVAVIWYDGRNKDYADSVKGRFTISRDNSKNTLYLQMNSLRAEDTAVYYCARVAPLGPLDYWGQGTLVTVSS
VL: EFVLTQSPGTLSLSPGERATLSCRASQSISSNFLAWYQQKPGQAPRLLIYRPSSRATGIPDSFSGSGSGTDFTLTISRLEPEDFALYYCQQYGTSPFTFGPGTKVDIK
modifications: chain 1 pos 1: pyroglutamate from Gln (FIG. 9: NH2-Blocked, pQ), written Q
Turning to B1, the selectivity ratio CTLA4/CD28 in assay [1] is > 500 :1. Further, the selectivity ratio CTLA4/B7.2 in assay [2] was > 500 :1.
